Patent publication US20250179152A1 (TEXAS A AND M UNIVERSITY SYSTEM, published 2025)
Values joined by “and” are separate entries in the source; they are usually repeats but may differ in a detail not shown here. Equal values may be shown once.

Columns and labels:
[1] = molecular target: T1, human IgG1 Fc-tagged RBD, T478K (SARS-CoV-2; human, UniProt P0DTC2 319-541); assay: ELISA; DARPin coated, Fc-tagged RBD titrated
T1 construct: domain: RBD

[2] = molecular target: T2, human IgG1 Fc-tagged RBD, S477N (SARS-CoV-2; human, UniProt P0DTC2 319-541); assay: ELISA; DARPin coated, Fc-tagged RBD titrated
T2 construct: domain: RBD

[3] = molecular target: T3, human IgG1 Fc-tagged RBD, V445A (SARS-CoV-2; human, UniProt P0DTC2 319-541); assay: ELISA; DARPin coated, Fc-tagged RBD titrated
T3 construct: domain: RBD

[4] = molecular target: T4, human IgG1 Fc-tagged RBD, Y453F (SARS-CoV-2; human, UniProt P0DTC2 319-541); assay: ELISA; DARPin coated, Fc-tagged RBD titrated
T4 construct: domain: RBD

[5] = molecular target: T5, human IgG1 Fc-tagged RBD, L455F (SARS-CoV-2; human, UniProt P0DTC2 319-541); assay: ELISA; DARPin coated, Fc-tagged RBD titrated
T5 construct: domain: RBD

[6] = molecular target: T6, human IgG1 Fc-tagged RBD, F490S (SARS-CoV-2; human, UniProt P0DTC2 319-541); assay: ELISA; DARPin coated, Fc-tagged RBD titrated
T6 construct: domain: RBD

[7] = molecular target: T7, human IgG1 Fc-tagged RBD, F486S (SARS-CoV-2; human, UniProt P0DTC2 319-541); assay: ELISA; DARPin coated, Fc-tagged RBD titrated
T7 construct: domain: RBD

[8] = molecular target: T8, human IgG1 Fc-tagged RBD, G476S (SARS-CoV-2; human, UniProt P0DTC2 319-541); assay: ELISA; DARPin coated, Fc-tagged RBD titrated
T8 construct: domain: RBD

[9] = molecular target: T9, human IgG1 Fc-tagged RBD, L452R + T478K (SARS-CoV-2; human, UniProt P0DTC2 319-541); assay: ELISA; DARPin coated, Fc-tagged RBD titrated
T9 construct: domain: RBD

[10] = molecular target: T10, human IgG1 Fc-tagged RBD, Wuhan-1 (SARS-CoV-2 (Wuhan-1); human, UniProt P0DTC2 319-541); assay: ELISA; DARPin coated, Fc-tagged RBD titrated
T10 construct: domain: RBD

[11] = molecular target: T11, human IgG1 Fc-tagged RBD, S494P (SARS-CoV-2; human, UniProt P0DTC2 319-541); assay: ELISA; DARPin coated, Fc-tagged RBD titrated
T11 construct: domain: RBD

[12] = molecular target: T12, human IgG1 Fc-tagged RBD, E484Q (SARS-CoV-2; human, UniProt P0DTC2 319-541); assay: ELISA; DARPin coated, Fc-tagged RBD titrated
T12 construct: domain: RBD

[13] = molecular target: T13, human IgG1 Fc-tagged RBD, E484K (SARS-CoV-2; human, UniProt P0DTC2 319-541); assay: ELISA; DARPin coated, Fc-tagged RBD titrated
T13 construct: domain: RBD

[14] = molecular target: T14, human IgG1 Fc-tagged RBD, K444Q (SARS-CoV-2; human, UniProt P0DTC2 319-541); assay: ELISA; DARPin coated, Fc-tagged RBD titrated
T14 construct: domain: RBD

[15] = molecular target: T15, human IgG1 Fc-tagged RBD, L452R (SARS-CoV-2; human, UniProt P0DTC2 319-541); assay: ELISA; DARPin coated, Fc-tagged RBD titrated
T15 construct: domain: RBD

[16] = molecular target: T16, human IgG1 Fc-tagged RBD, L452R + E484Q (SARS-CoV-2; human, UniProt P0DTC2 319-541); assay: ELISA; DARPin coated, Fc-tagged RBD titrated
T16 construct: domain: RBD

[17] = molecular target: T17, human IgG1 Fc-tagged RBD, F486V (SARS-CoV-2; human, UniProt P0DTC2 319-541); assay: ELISA; DARPin coated, Fc-tagged RBD titrated
T17 construct: domain: RBD

[18] = molecular target: T18, human IgG1 Fc-tagged RBD, G446V (SARS-CoV-2; human, UniProt P0DTC2 319-541); assay: ELISA; DARPin coated, Fc-tagged RBD titrated
T18 construct: domain: RBD

[19] = molecular target: T19, human IgG1 Fc-tagged RBD, K417E (SARS-CoV-2; human, UniProt P0DTC2 319-541); assay: ELISA; DARPin coated, Fc-tagged RBD titrated
T19 construct: domain: RBD

[20] = molecular target: T20, human IgG1 Fc-tagged RBD, N439K (SARS-CoV-2; human, UniProt P0DTC2 319-541); assay: ELISA; DARPin coated, Fc-tagged RBD titrated
T20 construct: domain: RBD

[21] = molecular target: spike protein of authentic SARS-CoV-2 B.1.1.519/BA.1 (SARS-CoV-2 (BA.1)); assay: cell-based or functional assay
[22] = molecular target: spike protein of authentic SARS-CoV-2 B.1.617.2 (SARS-CoV-2 (B.1.617.2)); assay: cell-based or functional assay
[23] = molecular target: spike protein of authentic SARS-CoV-2 B.1.1.519/BA.2 (SARS-CoV-2 (BA.2)); assay: cell-based or functional assay
[24] = molecular target: spike protein of authentic SARS-CoV-2 B.1.617.2/AY1 (SARS-CoV-2 (B.1.617.2.AY1)); assay: cell-based or functional assay
[25] = molecular target: spike protein of authentic SARS-CoV-2 B.1.1.519/BA.1.1 (SARS-CoV-2 (BA.1.1)); assay: cell-based or functional assay
[26] = molecular target: spike protein of authentic SARS-CoV-2 B.1.351 (SARS-CoV-2 (B.1.351)); assay: cell-based or functional assay
[27] = molecular target: Δ19 spike protein of C.37 on pseudotyped lentivirus (SARS-CoV-2 (C.37)); assay: cell-based or functional assay
[28] = molecular target: Δ19 spike protein of strain B.1.351 on pseudotyped lentivirus (SARS-CoV-2 (B.1.351)); assay: cell-based or functional assay
[29] = molecular target: Δ19 spike protein of B.1.617.2 on pseudotyped lentivirus (SARS-CoV-2 (B.1.617.2)); assay: cell-based or functional assay
[30] = molecular target: T10, human IgG1 Fc-tagged RBD, Wuhan-1
[31] = molecular target: human IgG1 Fc-tagged RBD of Omicron (SARS-CoV-2 (Omicron); human)

Binder | EC50 [1] | EC50 [2] | EC50 [3] | EC50 [4] | EC50 [5] | EC50 [6] | EC50 [7] | EC50 [8] | EC50 [9] | EC50 [10] | EC50 [11] | EC50 [12] | EC50 [13] | EC50 [14] | EC50 [15] | EC50 [16] | EC50 [17] | EC50 [18] | Neutralization IC50, pseudotyped lentivirus [28] | Neutralization IC50, pseudotyped lentivirus [29] | other results
FSR22 (designed binder) MGSSHHHHHHSSGMEQKLISEEDLDGYIPEAPRDGQAYVRKDGEWVLLSTFLGGGGSLQGGGGSLQGSDLGKKLLEAARAGQDDEVRILMANGADVNACDPSGITPLHLAADKGHLEIVEVLLKYGADVNAMDVWGRTPLHLAAFTGHLEIVEVLLKYGADVNACDLNGYTPLHLAAGRGHLEIVEVLLKNGAGVNAQDKFGKTAFDISIDNGNEDLAEILQSSS | 15.2 nM | 1.57 nM | 3.43 nM | 3.97 nM | 9.24 nM | 1.57 nM | 70.5 nM | 27.2 nM | 7.83 nM | 1.96 nM | 0.61 nM | 4.05 nM | 4.57 nM | 5.92 nM | 1.87 nM | 4.05 nM | 105 nM | 30.6 nM | 9.5 ng/ml and 135 pM | 13.3 ng/ml and 188 pM | EC50 [19]: 300 nM; EC50 [20]: 2.63 nM; Neutralization IC50, authentic SARS-CoV-2 virus [21]: 169 ngml^-1; Neutralization IC50, authentic SARS-CoV-2 virus [22]: 41.7 ngml^-1; Neutralization IC50, authentic SARS-CoV-2 virus [23]: 216 ngml^-1; Neutralization IC50, authentic SARS-CoV-2 virus [24]: 44.2 ngml^-1; Neutralization IC50, authentic SARS-CoV-2 virus [25]: 41.2 ngml^-1; Neutralization IC50, authentic SARS-CoV-2 virus [26]: 57.2 ngml^-1; Neutralization IC50, pseudotyped lentivirus [27]: 6.3 ng/ml and 89 pM; Kd [30]: 12.3 nM; Kd [31]: 2.63 nM
FSR16m (designed binder) MGMEQKLISEEDLDGYIPEAPRDGQAYVRKDGEWVLLSTFLGGGGSLQGGGGSLQGSDLGKKLLEAARAGQDDEVRILMANGADVNALDLFGVTPLHLAAERGHLEIVEVLLKNGADVNAGDAFGRTPLHLAALGGHLEIVEVLLKNGADVNACDLYGVTPLHLAAGLGHLEIVEVLLKNGADVNAQDKFGKTAFDISIDNGNEDLAEILQSSSKLAAALEHHHHHH | 0.19 nM | 0.63 nM | 0.46 nM | 0.74 nM | 0.1 nM | 0.15 nM | ≥ 300 nM | 5.73 nM | 0.13 nM | 0.59 nM | 0.26 nM | 0.34 nM | 0.21 nM | 1.03 nM | 0.37 nM | 0.21 nM | 300 nM | 7.65 nM | 18 pM and 1.3 ng/ml | 66 pM and 4.8 ng/mL | EC50 [19]: 300 nM; EC50 [20]: 0.75 nM; Neutralization IC50, authentic SARS-CoV-2 virus [21]: 44.7 ngml^-1; Neutralization IC50, authentic SARS-CoV-2 virus [22]: 2.2 ngml^-1; Neutralization IC50, authentic SARS-CoV-2 virus [23]: 33.3 ngml^-1; Neutralization IC50, authentic SARS-CoV-2 virus [24]: 3.3 ngml^-1; Neutralization IC50, authentic SARS-CoV-2 virus [25]: 7.4 ngml^-1; Neutralization IC50, authentic SARS-CoV-2 virus [26]: 3.4 ngml^-1; Neutralization IC50, pseudotyped lentivirus [27]: 0.9 ng/ml and 13 pM; Kd [30]: < 0.001 nM; Kd [31]: 3.65 nM
SR22 (designed binder) MGSSHHHHHHSSGLVPRGSHMEQKLISEEDLGSDLGKKLLEAARAGQDDEVRILMANGADVNACDPSGITPLHLAADKGHLEIVEVLLKYGADVNAMDVWGRTPLHLAAFTGHLEIVEVLLKYGADVNACDLNGYTPLHLAAGRGHLEIVEVLLKNGAGVNAQDKFGKTAFDISIDNGNEDLAEILQSSS |  |  |  |  |  |  |  |  |  |  |  |  |  |  |  |  |  |  | 1100 nM | 69.8 nM | 
SR16m (designed binder) MGSSDLGKKLLEAARAGQDDEVRILMANGADVNALDLFGVTPLHLAAERGHLEIVEVLLKNGADVNAGDAFGRTPLHLAALGGHLEIVEVLLKNGADVNACDLYGVTPLHLAAGLGHLEIVEVLLKNGADVNAQDKFGKTAFDISIDNGNEDLAEILQSSSKLAAALEHHHHHH |  |  |  |  |  |  |  |  |  |  |  |  |  |  |  |  |  |  | 420 nM | 77.8 nM | 
